Laboratory results: PMC5663926, “In vivo near-infrared imaging of ErbB2 expressing breast tumors with dual-axes confocal endomicroscopy using a targeted peptide” (Scientific Reports, 2017)
Like-named read-outs stand apart in the source and are kept apart here. Residues, ends and D or L forms follow the SMILES beside them. *: point of attachment. X1 = CC1(C)C(/C=C/C2=C(Oc3ccc(S(=O)(=O)O)cc3)C(=C/C=C3/N(CCCCS(=O)(=O)[O-])c4ccc(S(=O)(=O)O)cc4C3(C)C)/CCC2)=[N+](CCCCCC(=O)NCCN2C(=O)CC(*)C2=O)c2ccc(S(=O)(=O)O)cc21

Legend:
[1] = test system: tumor and internal organs of tumor-bearing mouse; assay: Peptide biodistribution ex vivo; assay type: in vivo; settings: n = 5 mice
Source text: (§1) High peptide uptake seen from the kidneys is consistent with renal clearance.
Figure 5 Peptide biodistribution. […] Strong signal from kidneys support renal clearance. (C) Quantified fluorescence intensities are shown for tumor and other organs from n = 5 mice. We fit a two-way ANOVA model to log-transformed data with terms for 11 tissues and 5 mice and tested each tissue mean against the mean for tumors. Kidney had 1.7 times more intense signals on average (P = 0.03), while all other tissues had at least 2-fold lower signals than tumor on average (P = 0.008 for lung was the largest P-value).

[2] = Histology (H&E) for acute toxicity; assay type: in vivo, mouse; settings: mice euthanized after imaging; KSP*-IR800 by tail vein
Source text: as §1

[3] = In vivo photoacoustic imaging of peptide uptake in xenograft breast tumors; parameters: species or system human xenograft, nude mouse; settings: female, nude athymic (002019 Foxn1 <nu>), mouse, in vivo, iv, 75 nmol per mouse, BT474 and MDA-MB-231 tumors, tail vein, 300 μM in 250 μL
Description: (§2) BT474 cells were diluted in growth factor reduced (GFR) Matrigel Matrix (Corning), and injected into one flank of female nude athymic mice (002019 Foxn1 , Jackson Laboratory) at 4–6 weeks of age with weight between 20–25 grams. A 0.18 mg 17-β-Estradiol pellet (#SE-121, Innovative Research of America) with 60 day release form was placed subcutaneously around the neck 1 day prior to tumor implantation to stimulate tumor growth. ∼1 × 10^7 cells were implanted for each tumor, and 2–3 implantations were performed in each mouse. MDA-MB-231 tumors were generated similarly except without Matrigel Matrix injection and only one implantation was performed in each mouse. Tumor size was monitored by ultrasound and MRI weekly. For all in vivo animal experiments, anesthesia was induced and maintained with inhaled isoflurane mixed with oxygen at a concentration of 2–4% at a flow rate of ~0.5 L/min via a nose cone.
(§3) We used photoacoustic tomography (Nexus128, Endra Inc) to measure peptide uptake by the human xenograft breast tumors. This system provides laser excitation with 7 ns pulses, 25 mJ/pulse, […] repetition rate, and tunable wavelength from 680 nm to 950 nm. The acoustic signal was collected with 128 unfocused (3 mm diameter) ultrasound transducers with 5 MHz center frequency assembled in a hemispherical bowl in a helical pattern. Water was added to the bowl to transmit the acoustic signal. We collected photoacoustic images with 120 views at 60 pulses/view. Each image covered a volume of 25 × 25 × 25 mm^3 with a voxel size of 280 μm^3, and each dataset required ~6–7 min for acquisition.
(§4) For imaging, the animals were placed inside a tray with the tumor positioned inside a water-filled dimple that couples the ultrasound signal. KSP*-IR800 was injected via tail vein at a concentration of 300 μM in a volume of 250 μL. Photoacoustic images were acquired at 0, 1, 2, 3, 6, 12, and 24 hours post-injection using λex = 780 nm excitation. PPS*-IR800 was administered in the same animal 48 hours later for control after the target peptide cleared as defined by T/B ratio returning to ∼1. IRDye800 (fluorophore without peptide) at the same concentration was also administered for control.
(§5) After completion of imaging, 3D images were reconstructed using data acquired from all 128 transducers at each view using a back-projection algorithm to correct for variations in laser intensity from pulse-to-pulse and small changes in temperature that affect the velocity of acoustic waves in water. The reconstructed raw data was analyzed using Osirix 6.5.2 software (Pixmeo) to generate a maximum intensity projection (MIP) image. To calculate the T/B ratio, the mean photoacoustic signal was measured from the tumor (target) using a circular ROI function on 2D MIP images. For background, we used the same ROI as that for the tumor prior to injection of peptide. The adjacent annulus with same area was used measure the background.

[4] = test system: BT474 and MDA-MB-231 human xenograft breast tumors in nude mice; assay: as above; parameters: species or system nude mouse
Description: as §2, §3, §4, §5

[5] = Sprague-Dawley rats; cited from earlier work
Source text: We validated specific binding of this peptide labeled with IRDye800CW to ErbB2 using siRNA knockdown and competition with cells in vitro and with immunohistochemistry and immunofluorescence studies on tissue specimens using known monoclonal anti-ErbB2 antibodies. Also, we have previously used peptides labeled with fluorescein isothiocyanate (FITC) in human clinical studies in hollow organs[25],[26]. We used IRDye800CW to image breast can ...

Row | Structure (SMILES) | kidney signal relative to tumor (times more intense) ([1]; 1 hour after injection, two-way ANOVA, P = 0.03) | signal in all other tissues than kidney, fold lower than tumor ([1]; liver, heart, stomach, brain, lung, spleen, small intestine, cecum, colon, 1 hour after injection, largest P = 0.008 (lung)) | fluorescence intensity from tumor compared with other organs ([1]; qualitative) | acute toxicity on histology (H&E) [2] | time after injection ([3]; read-out: time to return to baseline levels (T/B ratio)) | time after injection ([3]; λex = 780 nm, read-out: time of peak peptide uptake (T/B ratio)) | time of rapid tumor uptake ([4]; photoacoustic tomography, systemic administration, nude mice (Discussion)) | T/B ratio at ∼24 hours (clearance) ([4]; ∼24 hours post-injection, tail vein, 300 μM in 250 μL) | intravenous dose up to which safety was published [5] | time of peak signal ([4]; IRDye800 without peptide, same concentration, post-injection) | photoacoustic tumor signal of fluorophore alone ([4]; IRDye800 without peptide, same concentration, qualitative)
1 | CC1(C)C(/C=C/C2=C(Oc3ccc(S(=O)(=O)O)cc3)C(=C/C=C3/N(CCCCS(=O)(=O)[O-])c4ccc(S(=O)(=O)O)cc4C3(C)C)/CCC2)=[N+](CCCCCC(=O)NCCN2C(=O)CC(SC[C@H](NC(=O)[C@H](CO)NC(=O)CNC(=O)CNC(=O)CNC(=O)[C@H](Cc3ccccc3)NC(=O)[C@H](CCCNC(=N)N)NC(=O)[C@@H]3CCCN3C(=O)[C@H](CC(N)=O)NC(=O)[C@@H]3CCCN3C(=O)[C@H](CO)NC(=O)[C@@H](N)CCCCN)C(N)=O)C2=O)c2ccc(S(=O)(=O)O)cc21 (some centres unmarked) [KSP*-IR800] (H-KSPNPRFGGGSC(X1)-NH2) | 1.7 times | at least 2 fold | significantly greater fluorescence intensity from the tumor | no acute toxicity | ~24 | 1 | ~1 h | ~1 | – | – | –
2 | CC1(C)C(/C=C/C2=C(Oc3ccc(S(=O)(=O)O)cc3)C(=C/C=C3/N(CCCCS(=O)(=O)O)c4ccc(S(=O)(=O)[O-])cc4C3(C)C)/CCC2)=[N+](CCCCCC(=O)O)c2ccc(S(=O)(=O)O)cc21 [IRDye800, reference compound] | – | – | – | – | – | – | – | – | up to 20 mg/kg | 2 h | significantly lower signal
